From PMC10401002

Target: endogenous human glyceraldehyde 3-phosphate dehydrogenase (GAPDH), 3xFLAG-tagged by CRISPR/Cas9 knock-in (human (endogenous in HEK293T)) (UniProt P04406)
Experiment: cryo-EM structure; single-particle cryo-EM of endogenous 3xFLAG-tagged protein purified from HEK293T (anti-FLAG M2, SEC in TBS) on amine-modified graphene oxide grids; GAPDH also from cytosol and nuclei after 8 and 24 h of oxidative stress (1 mM H2O2, 10 mM L-Arg)

Chain of endogenous human glyceraldehyde 3-phosphate dehydrogenase (GAPDH), 3xFLAG-tagged by CRISPR/Cas9 knock-in, P04406 1-335 (enzyme; other documents disagree on this pair) (P04406 whole entry): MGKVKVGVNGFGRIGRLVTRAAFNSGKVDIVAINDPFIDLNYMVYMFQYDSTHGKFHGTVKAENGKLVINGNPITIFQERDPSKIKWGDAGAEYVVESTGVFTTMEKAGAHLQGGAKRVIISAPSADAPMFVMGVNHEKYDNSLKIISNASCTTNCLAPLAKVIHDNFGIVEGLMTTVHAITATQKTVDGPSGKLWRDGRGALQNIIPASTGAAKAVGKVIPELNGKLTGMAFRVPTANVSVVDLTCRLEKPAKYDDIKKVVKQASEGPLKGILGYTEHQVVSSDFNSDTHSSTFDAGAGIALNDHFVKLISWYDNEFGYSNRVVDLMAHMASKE

stoichiometry N: 4
Substance: endogenous human glyceraldehyde 3-phosphate dehydrogenase (GAPDH), 3xFLAG-tagged by CRISPR/Cas9 knock-in, P04406 1-335 (enzyme; other documents disagree on this pair)
